In patent US20180179500:

Molecular target: MspA-((Del-L74/G75/D118/L119)D56F/E59R/L88N/D90N/D91N/Q126R/D134R/E139K)8

B1: T4 Dda-F98W/E94C/C109A/C136A/K194L/A360C (protein)
chain: GTFDDLTEGQKNAFNIVMKAIKEKKHHVTINGPAGTGKTTLTKFIIEALISTGETGIILAAPTHAAKKILSKLSGKEASTIHSILKINPVTYECNVLWEQKEVPDLAKARVLICDEVSMYDRKLFKILLSTIPPWATIIGIGDNKQIRPVDPGENTAYISPFFTHKDFYQCELTEVKRSNAPIIDVATDVRNGLWIYDKVVDGHGVRGFTGDTALRDFMVNYFSIVKSLDDLFENRVMAFTNKSVDKLNSIIRKKIFETDKDFIVGEIIVMQEPLFKTYKIDGKPVSEIIFNNGQLVRIIEAEYTSTFVKARGVPGEYLIRHWDLTVETYGDDEYYREKIKIISSDEELYKFNLFLGKTCETYKNWNKGGKAPWSDFWDAKSQFSKVKALPASTFHKAQGMSVDRAFIYTPCIHYADVELAQQLLYVGVTRGRYDVFYV
Work on B1 yielded a % complement bases missed through slipping of 1.9%, an Average slip length of 23.3 and a Number complement slips per 3.6 kb (slips per 3.6 kb) of 3. For the same protein, the Number complement slips per kb was 0.8 slips per kb and the Total length of complement slips was 70.

B2: T4 Dda-E94C/F98W/C109A/C136A/K199L/A360C (protein)
chain: GTFDDLTEGQKNAFNIVMKAIKEKKHHVTINGPAGTGKTTLTKFIIEALISTGETGIILAAPTHAAKKILSKLSGKEASTIHSILKINPVTYECNVLWEQKEVPDLAKARVLICDEVSMYDRKLFKILLSTIPPWATIIGIGDNKQIRPVDPGENTAYISPFFTHKDFYQCELTEVKRSNAPIIDVATDVRNGKWIYDLVVDGHGVRGFTGDTALRDFMVNYFSIVKSLDDLFENRVMAFTNKSVDKLNSIIRKKIFETDKDFIVGEIIVMQEPLFKTYKIDGKPVSEIIFNNGQLVRIIEAEYTSTFVKARGVPGEYLIRHWDLTVETYGDDEYYREKIKIISSDEELYKFNLFLGKTCETYKNWNKGGKAPWSDFWDAKSQFSKVKALPASTFHKAQGMSVDRAFIYTPCIHYADVELAQQLLYVGVTRGRYDVFYV
In the case of B2, the % complement bases missed through slipping is reported as 3.6%, the Average slip length is reported as 21.5 and the Number complement slips per 3.6 kb (slips per 3.6 kb) is reported as 6. The Number complement slips per kb was 1.7 slips per kb and the Total length of complement slips was 129.
